These results are taken from patent US20250213684A1 (Novartis, published 2025).

Test [1] deals with T1, huTIM-3/his (human, UniProt Q8TDQ0 22-202).
T1 construct: also called hTIM-3/his antigen
The test is described as follows: Biacore, 2nd antibody injection; 1st antibody (competitor) ABTIM3-hum03. A general note: SPR reads the build-up and loss of mass on a sensor chip optically.

The target of test [2] is T2, cynoTIM-3/Fc (cynomolgus monkey, UniProt A0A2K5U3G7 22-195).
T2 sequence: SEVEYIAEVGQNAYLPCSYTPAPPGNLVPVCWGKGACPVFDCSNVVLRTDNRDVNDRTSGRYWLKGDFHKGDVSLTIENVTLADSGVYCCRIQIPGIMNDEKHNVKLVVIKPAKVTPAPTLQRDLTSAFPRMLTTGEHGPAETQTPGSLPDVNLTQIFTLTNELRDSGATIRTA
The test is described as follows: SPR (Biacore), run 3.

The next test concerns the target T3, ratTIM-3/Fc (rat, UniProt P0C0K5 22-194, limits assumed).
T3 construct: also called rat TIM-3/Fc protein
T3 sequence (looked up): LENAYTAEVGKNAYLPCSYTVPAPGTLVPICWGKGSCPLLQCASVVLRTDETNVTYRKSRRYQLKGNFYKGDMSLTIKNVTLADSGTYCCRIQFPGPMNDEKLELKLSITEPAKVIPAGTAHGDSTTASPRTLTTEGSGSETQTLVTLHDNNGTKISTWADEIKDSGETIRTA
The test is described as follows: SPR (Biacore), run 3.

In test [3] the target is T1, huTIM-3/his. The test is described as follows: SPR (Biacore), run 3.
Test [4] deals with T4, human TIM-3 expressed on cells (human, UniProt Q8TDQ0 22-301).
T4 construct: also called huTIM-3; hTIM-3
The test is described as follows: flow cytometry, 300.19 huTIM3 cells, detected by secondary Ab-FITC. A general note: Flow cytometry measures light scatter and fluorescence of single cells or particles in a stream.

The target in test [5] is T2, cynoTIM-3/Fc. The test is described as follows: SPR (Biacore), mean KD.
Test [6] addresses T1, huTIM-3/his. The test is described as follows: SPR (Biacore), mean KD.
Test [7] addresses T5, TIM-3 (antigen; species and construct not stated for the assay) (UniProt Q8TDQ0 22-202, limits assumed). The test is described as follows: SPR (Biacore), run of May 30, 2014.
Test [8] has as its target T4, human TIM-3 expressed on cells. The test is described as follows: flow cytometry competition on 300.19 hTIM-3 cells against PE-labelled ABTIM3-hum21.
Test [9] shares this target. The test is described as follows: flow cytometry competition on 300.19 hTIM3 cells in presence of ABTIM3; signal is MFI of 0.51ug/ml 22C1-PE.
Test [10] addresses T1, huTIM-3/his. The test is described as follows: Biacore, 2nd antibody injection; 1st antibody (competitor) ABTIM3-hum21.
The target in test [11] is T1, huTIM-3/his. The test is described as follows: Biacore, 2nd antibody injection; 1st antibody (competitor) huIgG1.
Test [12] addresses T4, human TIM-3 expressed on cells. The test is described as follows: flow cytometry on cells expressing human TIM-3.
Test [13] has as its target T2, cynoTIM-3/Fc. The test is described as follows: SPR (Biacore), run 1.
The target in test [14] is T1, huTIM-3/his. The test is described as follows: SPR (Biacore), run 1.
Test [15] deals with T2, cynoTIM-3/Fc. The test is described as follows: SPR (Biacore), run 2.
Test [16] addresses T1, huTIM-3/his. The test is described as follows: SPR (Biacore), run 2.
Test [17] concerns the target T6, cynomolgus TIM-3 expressed on transfected cells (cynomolgus monkey, UniProt A0A2K5U3G7 22-294).
T6 construct: whole, on cells; also called cynoTIM-3; cynomolgus monkey TIM-3
T6 sequence: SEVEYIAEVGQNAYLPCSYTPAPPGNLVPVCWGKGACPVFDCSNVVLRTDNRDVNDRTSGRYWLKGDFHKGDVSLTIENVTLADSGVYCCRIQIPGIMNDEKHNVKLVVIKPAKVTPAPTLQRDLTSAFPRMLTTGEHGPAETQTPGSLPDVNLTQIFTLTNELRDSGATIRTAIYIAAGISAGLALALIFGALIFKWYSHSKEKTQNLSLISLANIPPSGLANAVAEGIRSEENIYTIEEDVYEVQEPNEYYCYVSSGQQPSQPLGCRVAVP
The test is described as follows: flow cytometry (Median FI-FITC), CynoTim-3-300.19 cells.

Test [18] concerns the target T5, TIM-3 (antigen; species and construct …). The test is described as follows: FACS competition binding against the parent murine ABTIM3; cells not named on the sheet.
The target of test [19] is T7, murine TIM-3 expressed in cells (murine, UniProt Q8VIM0 20-281).
T7 construct: whole, on cells; also called mouse TIM-3
T7 sequence (Q8VIM0 20-281): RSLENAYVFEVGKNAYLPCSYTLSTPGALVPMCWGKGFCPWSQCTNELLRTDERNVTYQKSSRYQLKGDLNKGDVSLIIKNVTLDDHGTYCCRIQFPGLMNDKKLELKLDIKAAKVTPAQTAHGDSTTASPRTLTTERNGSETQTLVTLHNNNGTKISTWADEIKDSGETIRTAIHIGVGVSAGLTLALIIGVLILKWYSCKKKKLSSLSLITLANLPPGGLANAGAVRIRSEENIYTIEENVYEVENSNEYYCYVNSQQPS
The test is described as follows: flow cytometry on cells expressing murine TIM-3.

Test [20] deals with T4, human TIM-3 expressed on cells. The test is described as follows: flow cytometry on activated human PBMCs, CD8 gated.
Test [21] addresses T8, human TIM-4 expressed in CHO cells (human, UniProt Q96H15 25-378).
T8 construct: whole, on cells
T8 sequence (looked up): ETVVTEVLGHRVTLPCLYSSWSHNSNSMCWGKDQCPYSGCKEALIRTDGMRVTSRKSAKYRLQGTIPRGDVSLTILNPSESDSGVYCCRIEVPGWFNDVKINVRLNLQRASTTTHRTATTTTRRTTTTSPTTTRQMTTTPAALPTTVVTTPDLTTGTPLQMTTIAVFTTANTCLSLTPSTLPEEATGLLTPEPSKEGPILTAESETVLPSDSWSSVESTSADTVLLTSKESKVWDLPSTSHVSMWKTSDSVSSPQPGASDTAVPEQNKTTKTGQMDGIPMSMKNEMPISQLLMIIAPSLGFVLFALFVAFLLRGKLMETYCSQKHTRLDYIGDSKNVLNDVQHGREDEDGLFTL
The test is described as follows: flow cytometry on CHO cells expressing human TIM-4.

In test [22] the target is T4, human TIM-3 expressed on cells. The test is described as follows: flow cytometry on activated human PBMCs, CD4 gated.

Usually Kd stands for the equilibrium constant for the complex coming apart. The low end stands for a tighter complex, the high end for a looser complex. As a reminder, the EC50 (read off the curve) is the concentration giving half of the maximal effect. Low values mean higher potency in that assay, high ones lower potency in that assay.

B1: ABTIM3-hum11 (antibody, human IgG4 S228P, kappa, V domains shown)
VH: QVQLVQSGAEVKKPGSSVKVSCKASGYTFTSYNMHWVRQAPGQGLEWMGDIYPGNGDTSYNQKFKGRVTITADKSTSTVYMELSSLRSEDTAVYYCARVGGAFPMDYWGQGTTVTVSS
VL: AIQLTQSPSSLSASVGDRVTITCRASESVEYYGTSLMQWYQQKPGKAPKLLIYAASNVESGVPSRFSGSGSGTDFTLTISSLQPEDFATYFCQQSRKDPSTFGGGTKVEIKR
notes: Humanized; Immobilized on Protein G beads and cross-linked with DSS in the HDx-MS experiment
With B1, the “change in RU” value is 8.5 RU with huTIM-3/his [1], 8.1 RU with huTIM-3/his [10] and 83.2 RU with huTIM-3/his [11]. Moreover, the Kd with cynoTIM-3/Fc [2] was determined as 5.04 nM; with ratTIM-3/Fc it was 297 nM; with huTIM-3/his [3] it was 0.109 nM; in the test with cynoTIM-3/Fc [5], 3.14 nM; with huTIM-3/his [6] it was 0.163 nM; in test [7], 0.194 nM. For the same molecule, the Kd came out at 0.906 nM in test [12]; 1.24 nM with cynoTIM-3/Fc [13]; 0.155 nM with huTIM-3/his [14]; 3.14 nM with cynoTIM-3/Fc [15]; 0.226 nM in the test with huTIM-3/his [16]. Moreover, in [4], the “EC50 (read off the curve)” value was roughly 0.1 µg/mL. Also, the “IC50 (read off the curve)” value in test [8] is roughly 0.4 µg/mL; in test [9] it was roughly 0.2 µg/mL.

B2: ABTIM3 (antibody, V domains shown)
VH: QVQLQQPGAELVKPGASVKMSCKASGYTFTSYNMHWIKQTPGQGLEWIGDIYPGNGDTSYNQKFKGKATLTADKSSSTVYMQLSSLTSEDSAVYYCARVGGAFPMDYWGQGTSVTVSS
VL: DIVLTQSPASLAVSLGQRATISCRASESVEYYGTSLMQWYQQKPGQPPKLLIYAASNVESGVPARFSGSGSGTDFSLNIHPVEEDDIAIYFCQQSRKDPSTFGGGTKLEIK
notes: Murine monoclonal antibody; also called murine anti-TIM-3 antibody ABTIM3; parent murine anti-TIM-3 antibody
In the case of B2, the results for the “EC50 (read off the curve)” value in [17] and in [4] were roughly 0.3 µg/mL and roughly 0.1 µg/mL, respectively. The “IC50 (read off the curve)” value in test [18] and in test [9] was roughly 0.2 µg/mL in each case. Moreover, the binding result in test [19] and in [21] was “no binding” in each case. Besides, the Kd turned out to be 0.3 nM in test [20], 1.04 nM in [12] and 0.29 nM in test [22].
